# Results published in the DeepSol protein solubility set.
# Assay: soluble on expression in E. coli; label from the status in PepcDB or PDB records
row,Sequence,soluble on expression in E. coli
1,NEVESGYYFTTLDHYIYEAEEANLGPGVVVVERQYIQDRIPSWTGPGFVRVPEGAYLEFFIDNIPYSMEYEILIRYEPQLPDHWEKAVITVQRPGKIPASSRCGNTVPDDDNQVVSLSPGSRYVVLPRPVCFEKGMNYTVRLELPQYTASGSDVESPYTFIDSLVLMPYCKSLDIFTVGGSGDGEVTNSAWETFQRYRCLENSRSVVKTPMTDVCRNIIFSISALIHQTGL,soluble
2,MGSDKIHHHHHHMLMTPDEDRITQLYEAFNRRAFDRCIAMLAPDVSWPDELEDRRLEGLDAVRAYLDHAIAPLRVCYQPIALFTPSPGQIEVLARQTVLSATDGSLWSSLRVRHRYTIKDGLFTHLESEQNYTAPTFEGVDRLLRRLYDAINAGDVDGAAACFGDHACFEDKLEDGPISGPAAIRAHFEHLFATLQVTATMCDYALEPDDRVRVRLQVEARGATGRLWHDGGVTAWYRLEGGLIVGQDVDDSGEEAP,not soluble
3,MSLIKVPCMQITNMHCSGQTVSLAAGDYHATIVTVGAGLAELTFQGCHLVIPHKPEEMPLAHLGKVLIPWPNRIANGCYRYQGQEYQLPINEHSSKAAIHGLLAWRDWQISELTATSVTLTAFLPPSYGYPFMLASQVVYSLNAHTGLSVEIASQNIGTVAAPYGVGIHPYLTCNLTSVDEYLFQLPANQVYAVDEHANPTTLHHVDELDLNFTQAKKIAATKIDHTFKTANDLWEMTITHPQQALSVSLCSDQLWVQVYSGEKLQRQGLAVEPMSCPPNAFNSGIDLLLLESGKPHRLFFNIYGQRKMGHHHHHHSH,not soluble
4,MKIFVCEDDQRQREHMVSIIKNYIMIEEKPMELALATNDPYEVLEQSKELNDIGCYFLDIQLEADMNGIKLASEIRKHDPVGNIIFVTSHSELTYLTFVYKVAAMDFIFKDDPSELKMRIIDCLETAHTRLKLLSKESNVDTIELKRGSNSVYVQYDDIMFFESSTKSHRLIAHLDNRQIEFYGNLKELAQLDERFFRCHNSFVINRHNIESIDSKERIVYFKNGENCFASVRNVKKI,not soluble
5,MADYWKDVLPVDPYVVKSRSMLQDIDRQIITQLYQPLIGPVAFSLYMTLWGELEQNRLWGGESTHRQLMGMTQSNLKTIHQEQGKLEGIGLLKVYMKESERQERLFIYELLPPLRPNEFFEDGMLNVFLYNRVGKTKYQQLKQFFTHPAISEDAKDITRPFNHAFESLQPSEWKLTSDMEETVRLAEGSEYTSVGQSPSYTITEDVFDFDLFLAGLSETMIPRKAMTQQVRDTIKKLSYLYGIDPLQMQNVVMSAIDERDVITTEALRKAASDWYQIERNGQLPDLVEKTQPVHLREGEQPAEEDSLDGKLIALLEAISPKKLLQDIADGTEPSKADLKIIEEIMFEQKLEPGVTNVLIYYVMLKTDMKLSKNYIQKIASHWARKKVKTVREAMKLAIEENRQYLEWAEGKTKSSKRNQKVIREEKLPDWMTEKETASDSESGQQKLHPQDLEEQKKKMMEEMQKLKKYSAY,not soluble
6,MGSDKIHHHHHHMADDETRKYVIPGLERGLTILMALSRSHREMSLAEIVKCVEWPKASVYRAVQTLEYMGFVRRHPSSGLYSLGVSVLRLGFEYVSSLDLVQVGQPVIESLRDRSGCSSHIVIRDGRDVIYVARVSAAGTTTHRVSVGTRLPVHRTSLGRVLLTGMSREAFERLYPDPELPDTRPGAPADREALWQLVQDDRARGYVVGESFFQLGISSIVYPLFTQEGDVAGAISIMVPVHEIPAEDRERLRGYVEDAAMTISEMLGYHDPRARRSDMP,not soluble
7,MAKPVVIGSRSFRTQSSALDHYKALLHRYQDGQRIADPADHTDLVALIERFDPVLDAVGEPAKGAGQIAHFERRLNTGIGWSTPGFWVVRQDGTETDFSYIDAVKGRPKGRSQDFYNACRQAVALDLVLAKKQAFAQYGDDQGRVECELTGKMVTIDDAHLDHAWPYFSHMVSGFRAARGWSRDIPDGIVSTPADGQTTATFLDSAVTEAFRAFHHDQAVLRVLSREANLQTASSARRPKVARPVRLA,not soluble
8,MSLLEKDINLKIFKGNLIFTKTSDKFTIMKDSYIVVIDGKIASVSSNLPDKYKGNPIIDFRNNIIIPGMNDLHAHASQYKNLGIGMDKELLPWLNNYTFPEEAKFLNVDYAKKTYGRLIKDLIKNGTTRVALFATLHKDSTIELFNMLIKSGIGAYVGKVNMDYNCPDYLTENYITSLNDTEEIILKYKDKSNIVKPIITPRFVPSCSNELMDGLGKLSYKYRLPVQSHLSENLDEIAVVKSLHKKSNFYGEVYDKFGLFGNTPTLMAHCIHSSKEEINLIKRNNVTIVHCPTSNFNLGSGMMPVRKYLNLGINVVLGSDISAGHTCSLFKVIAYAIQNSKIKWQESGKKDMFLSTSEAFYMATKKGGSFFGKVGSFEEGYDFDALVINDSNLYPEDYDLTERLERFIYLGDDRNIMKRYVCGNEIFGPKFEGHHHHHH,soluble
9,MPRVGIITSDFKFYHDVIKQLRLWKIPFVSLDLKGNIPDDVVVILSSIRDDIDLPDQVKAQDGLDGIRRAIPRLLNKTMFKDLTIGIDPGPKPGIAVFGDDVLLEAFECPTVFSVRKFVDSISMSYSYENITIKIGNGDRPNRDIIMNRLSDVDISIEVVNEKNTSTPHKIHDNALSAARIAQINGLYPIKRIPVKFSRKNVYEKEFVTLKNVIENAAGTEGRSSNST,not soluble
10,GHMDVGERSSDQGTTVLTEAQRIDWMRLIRAENVGPRTFRSLINHFGSARAALERLPELARRGGAARAGRIPSEDEARREIEAGRRIGVELVAPGETGYPTRLATIDDAPPLLGVHALPEALAVMARPMIAIVGSRNASGAGLKFAGQLAADLGAAGFVVISGLARGIDQAAHRASLSSGTVAVLAGGHDKIYPAEHEDLLLDIIQTRGAAISEMPLGHVPRGKDFPRRNRLISGASVGVAVIEAAYRSGSLITARRAADQGREVFAVPGSPLDPRAAGTNDLIKQGATLITSASDIVEAVASILERPIELPGREPEHAPPEGEPDTGDRTRILALLGPSPVGIDDLIRLSGISPAVVRTILLELELAGRLERHGGSLVSLS,soluble
11,MVNVRGPVLEVDDPKSVETSHGTSQLAEVVIRPERGAASPTTVTLWGKWTETVEYLAVGMELLATDLDERTFDGDTQYSTTGESAVVVEPDFLVDVTDIRGWVQCPRMYYLNKLTGLPLKYPVLKGTVVHEVFGDLLRGRDLESSIESRVAEAALDIGLLGETADAVADDVRQNAAAIQGWLQQGRFGEDSWRSEQTLISERFGIKGRADAVRRGMPVELKTGKNLKRSPRFQDKVQAACYGLLLADDIADPPDTGTLLYTKNSALDRSEESGDLSPAKEFSIGPGFLKYVLRVRNEIAAAEYDMSVPTGFEADANCDYCFEQDTCMVVSGRLDQESKAGQLGEPLPEPERAYFERLYRAIEEERREVHAEYRKLWEQSAAERADDDRALVDLDPLGREPLDGGRWALSARRTSDAVSKIREGDRVLASDGHPTQGTAELATVRHLDDEIVVVADEPFELRRIDVYPSELGVDRQLTALHDAVLRGDPDRKDVLFGRREPSFVGDHRPIIDNNESQNEAVNRALAAEDFALIHGPPGTGKTYTLAQTVQALVARGDRVLLSAFTNRAVDNAIEALEAQGFTDVLRWGSESGVRDDMQSYRFDRTGDPRERAAALRDAQVVAATTAACGSRALKQQQFDVAVIDEAGQLTEPGTFLATNRADRFVLVGDHEQLPPVVRAENDLQTSLFEQLIDDYPDAAVMLDRQYRMSQRIQYFASREFYDGQLRPANAEVASQRLADLDGVDVSTLPSALRDAVSFVDPGLEHHHHHH,not soluble
12,MSLEDGPVTNPRQEEPQKVVKEEGFARGADVSWLTQMEAEGLKFYTPDENRQEMECMDLLRDYCGVNSIRLRVWVNPKDGWNNMNDVIVKAKRAERLGLRTMIDFHFSDTWADPGHQEMPEAWKELSFDDLKIALSEHVKSVLTALKAVGVTPEWVQVGNETTPGMMLPVGSVDNPEQLTALNNAGYDAVKAICPDAKVIVHLDAGNDQWVYNRMFDILQANGGKYDMIGMSLYPYWAEQEGKTGGWLKVADDCIANIKHVKQKYNKPVMICEIGMPYDQAEACKQLITKMMQADVEGIFYWEPQAPNGYNDGYNLGCFDNNAPTIALDAFKIEGHHHHHH,soluble
13,MTEQMWIEKLGLEAHPEGGYFKQTNKSEQLIPTKRGERALHTAILFLLNTESPSHFHRLKADELWFFHDGQPLTVHCIFPDGTYQAVQLGKDLVQGQQLSFSVPAGTIFGSTVATGFALVSCVVTPGFEFEDFELFTQAELLNDYPQHSEIIQHLAYRELPLEHHHHHH,soluble
